Test results from patent US20030186325A1 (GlaxoSmithKline, published 2003).

Columns and labels:
α4β1 integrin [1] = target: T1, α4β1 integrin (UniProt P13612 34-1032; P05556 21-798); test: adhesion of J6 and HL60 cells to coated GST fusion with function blocking antibodies
T1 construct: whole, on cells; Endogenous integrin on the J6 and HL60 cell lines; adhesion run with 0.2 mM MnCl2 (and TPA for HL60); also called α4 integrin on J6 and HL60 cells
Description: Cells were incubated for 35 minutes at 37° C. in the presence of or absence of various function blocking anti-integrin antibodies at 10 μg/ml. To prebind the antibodies cells were preincubated on ice for 10 minutes before being moved to 37° C. Each data point represents the mean±SD of duplicate points. […] To stimulate α4β1 binding to OPN, 50 ng/ml TPA was also included. Cells were incubated for 35 minutes at 37° C. in the presence or absence of various function blocking anti-integrin antibodies at 10 μg/ml. To prebind the antibodies cells were preincubated on ice for 10 minutes before being moved to 37° C. Each data point represents the mean±SD of duplicate points.

α4β1 integrin [2] = target: T1, α4β1 integrin; test: J6 cell adhesion to coated GST fusion, with and without BIO1211
α5β1 integrin [3] = target: T2, α5β1 integrin (UniProt P08648 42-1049; P05556 21-798); test: J6 cell adhesion to coated GST fusion that is left in the presence of BIO1211
T2 construct: whole, on cells; Endogenous integrin on J6 cells
T2 sequence (P08648 42-1049, chain 1 of 2): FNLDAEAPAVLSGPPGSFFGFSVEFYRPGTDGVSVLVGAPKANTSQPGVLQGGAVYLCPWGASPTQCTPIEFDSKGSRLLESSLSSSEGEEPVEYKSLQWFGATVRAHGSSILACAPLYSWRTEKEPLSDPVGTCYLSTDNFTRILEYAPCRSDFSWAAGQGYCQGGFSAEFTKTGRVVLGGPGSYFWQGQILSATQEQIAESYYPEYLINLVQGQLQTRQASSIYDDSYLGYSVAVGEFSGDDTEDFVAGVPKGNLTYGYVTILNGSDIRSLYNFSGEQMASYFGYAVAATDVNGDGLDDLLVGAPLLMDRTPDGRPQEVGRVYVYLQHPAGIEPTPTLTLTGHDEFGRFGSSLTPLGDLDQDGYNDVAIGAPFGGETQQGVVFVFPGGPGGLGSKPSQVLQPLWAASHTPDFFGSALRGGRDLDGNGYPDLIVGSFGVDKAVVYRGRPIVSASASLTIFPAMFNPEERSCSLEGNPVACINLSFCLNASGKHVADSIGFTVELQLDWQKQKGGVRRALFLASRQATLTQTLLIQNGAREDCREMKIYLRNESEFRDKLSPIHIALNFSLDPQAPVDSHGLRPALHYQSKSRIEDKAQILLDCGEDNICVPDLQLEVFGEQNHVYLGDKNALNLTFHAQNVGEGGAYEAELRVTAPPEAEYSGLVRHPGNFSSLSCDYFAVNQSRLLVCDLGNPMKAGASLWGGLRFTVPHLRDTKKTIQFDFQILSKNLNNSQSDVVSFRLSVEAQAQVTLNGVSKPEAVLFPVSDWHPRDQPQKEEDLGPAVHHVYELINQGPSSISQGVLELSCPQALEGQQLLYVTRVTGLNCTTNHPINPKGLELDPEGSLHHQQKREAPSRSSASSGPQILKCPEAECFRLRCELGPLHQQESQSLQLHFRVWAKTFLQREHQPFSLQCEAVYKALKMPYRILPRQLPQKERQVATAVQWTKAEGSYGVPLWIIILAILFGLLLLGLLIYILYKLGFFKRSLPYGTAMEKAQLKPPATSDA
T2 sequence (P05556 21-798, chain 2 of 2): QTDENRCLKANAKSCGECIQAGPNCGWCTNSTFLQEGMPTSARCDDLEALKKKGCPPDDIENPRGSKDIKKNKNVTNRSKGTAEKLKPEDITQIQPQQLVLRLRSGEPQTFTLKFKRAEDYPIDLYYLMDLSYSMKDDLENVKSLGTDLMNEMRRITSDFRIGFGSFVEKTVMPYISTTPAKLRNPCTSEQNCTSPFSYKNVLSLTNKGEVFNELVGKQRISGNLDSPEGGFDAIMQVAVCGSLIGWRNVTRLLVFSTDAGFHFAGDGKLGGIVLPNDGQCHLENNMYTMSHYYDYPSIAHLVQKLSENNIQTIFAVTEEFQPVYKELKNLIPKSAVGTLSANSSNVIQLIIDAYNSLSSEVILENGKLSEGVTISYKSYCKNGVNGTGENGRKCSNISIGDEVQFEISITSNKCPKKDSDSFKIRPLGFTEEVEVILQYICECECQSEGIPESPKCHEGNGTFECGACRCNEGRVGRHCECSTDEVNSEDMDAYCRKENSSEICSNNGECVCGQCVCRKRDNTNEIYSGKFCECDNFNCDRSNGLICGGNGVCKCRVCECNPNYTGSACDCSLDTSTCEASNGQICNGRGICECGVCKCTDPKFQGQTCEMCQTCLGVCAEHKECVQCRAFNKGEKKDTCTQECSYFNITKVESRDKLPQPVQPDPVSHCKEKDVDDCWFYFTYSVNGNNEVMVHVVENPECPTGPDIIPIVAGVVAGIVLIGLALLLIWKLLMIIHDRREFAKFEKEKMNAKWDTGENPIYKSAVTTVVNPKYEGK

α5β1 integrin [4] = target: T2, α5β1 integrin; test: J6 cell adhesion to coated GST fusion in the presence of BIO1211

T1 sequence (P13612 34-1032, chain 1 of 2): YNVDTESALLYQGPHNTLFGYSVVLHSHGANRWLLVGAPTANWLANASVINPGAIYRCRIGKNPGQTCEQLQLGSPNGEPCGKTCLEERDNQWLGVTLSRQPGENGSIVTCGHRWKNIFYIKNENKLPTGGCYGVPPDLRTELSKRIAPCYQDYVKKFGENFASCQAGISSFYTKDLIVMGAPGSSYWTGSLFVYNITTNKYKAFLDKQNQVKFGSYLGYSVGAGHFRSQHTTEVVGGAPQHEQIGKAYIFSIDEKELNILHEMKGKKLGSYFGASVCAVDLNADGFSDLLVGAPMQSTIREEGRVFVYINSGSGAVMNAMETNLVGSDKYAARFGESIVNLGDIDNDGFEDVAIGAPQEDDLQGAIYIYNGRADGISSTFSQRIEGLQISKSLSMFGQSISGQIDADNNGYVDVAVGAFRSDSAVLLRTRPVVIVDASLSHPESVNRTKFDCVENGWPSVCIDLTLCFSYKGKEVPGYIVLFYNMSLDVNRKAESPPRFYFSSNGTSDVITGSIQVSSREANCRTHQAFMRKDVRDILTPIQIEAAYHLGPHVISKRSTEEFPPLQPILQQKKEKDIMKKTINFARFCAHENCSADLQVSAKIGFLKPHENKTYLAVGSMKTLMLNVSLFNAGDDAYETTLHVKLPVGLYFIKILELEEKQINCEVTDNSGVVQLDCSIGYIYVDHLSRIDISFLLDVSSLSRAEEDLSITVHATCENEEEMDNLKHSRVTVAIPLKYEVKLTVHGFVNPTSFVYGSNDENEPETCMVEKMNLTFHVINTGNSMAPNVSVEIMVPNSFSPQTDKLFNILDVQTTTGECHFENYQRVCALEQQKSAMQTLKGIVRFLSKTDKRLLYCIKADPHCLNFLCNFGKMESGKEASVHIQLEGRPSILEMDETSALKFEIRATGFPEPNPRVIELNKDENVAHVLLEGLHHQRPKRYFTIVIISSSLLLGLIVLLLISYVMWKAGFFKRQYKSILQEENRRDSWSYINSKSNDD
T1 sequence (P05556 21-798, chain 2 of 2): as the sequence (P05556 21-798, chain 2 of 2) above

B1: GST fusion protein representing intact osteopontin (aa17-314) (ligand)
chain: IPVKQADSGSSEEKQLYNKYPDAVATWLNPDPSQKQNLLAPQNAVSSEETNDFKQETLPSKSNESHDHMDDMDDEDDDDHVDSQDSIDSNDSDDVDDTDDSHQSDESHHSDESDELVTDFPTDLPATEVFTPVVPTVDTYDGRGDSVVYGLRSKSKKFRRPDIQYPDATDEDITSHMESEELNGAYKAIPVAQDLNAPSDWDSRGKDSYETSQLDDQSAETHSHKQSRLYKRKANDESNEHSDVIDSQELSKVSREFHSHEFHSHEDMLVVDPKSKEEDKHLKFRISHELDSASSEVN
notes: Expressed in E. coli UT5600; coated on plates; also called intact OPN; full length OPN; not shown: GST carrier and the linker of the modified pGEX-2T vector
- binding result (α4β1 integrin [1]): binds

B2: GST fusion protein of thrombin cleaved OPN (aa17-168) (ligand)
chain: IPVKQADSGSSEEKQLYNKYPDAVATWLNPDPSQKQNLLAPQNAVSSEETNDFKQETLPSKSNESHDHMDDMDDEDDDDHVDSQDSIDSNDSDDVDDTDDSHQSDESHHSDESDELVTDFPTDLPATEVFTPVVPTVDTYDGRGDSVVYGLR
notes: Stop codon after aa168, so that Arg168 is the free C-terminus; also called thrombin cleaved fragment; not shown: GST carrier and the linker of the modified pGEX-2T vector
- binding result (α4β1 integrin [2]): binds
- binding result (α5β1 integrin [3]): binds

B3: GST fusion protein of OPN aa125-168 (ligand)
chain: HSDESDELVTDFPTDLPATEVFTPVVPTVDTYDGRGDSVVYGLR
notes: not shown: GST carrier and the linker of the modified pGEX-2T vector
- binding result (α5β1 integrin [4]): binds
- binding result (α4β1 integrin [2]): binds
